Results taken from patent US20160376333A1 (University of Washington, published 2016).

How the values were obtained:
[1] = molecular target: T1, Epstein-Barr virus BHRF1 a.a. 1-161 with C-terminal avi-6his tag (Epstein-Barr virus); assay: yeast display library, FACS sort at 100 nM BHRF1, deep sequencing
T1 construct: also called EBV BHRF1; BHRF1-biotin
T1 chain: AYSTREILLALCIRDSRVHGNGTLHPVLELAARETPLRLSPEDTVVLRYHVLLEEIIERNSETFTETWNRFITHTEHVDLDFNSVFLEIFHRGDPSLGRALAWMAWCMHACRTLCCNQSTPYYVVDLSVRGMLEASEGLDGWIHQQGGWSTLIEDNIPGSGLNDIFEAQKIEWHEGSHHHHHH

[2] = molecular target: T1, Epstein-Barr virus BHRF1 a.a. 1-161 …; assay: yeast display library, FACS sort at 400 nM BHRF1, deep sequencing

Binder	Log2 enrichment ratio [1]	Log2 enrichment ratio [2]
Index 69 (designed binder) GEQAEKALRRAKRRAKWGLDDAKDILDDIEAEIRWYYPRDEERFKFVDRWIAAMLMVIGDLFNAKREALERALRLMRKGLISQDQFKKFMEKLEKIILWGKFQARKLGREKESEITQG	-3.25 log2	-3.99 log2
Index 70 (designed binder) GLLWLAIILKAEELARKKDDEAEERIRRLEDEKRKGDPGTLGEAERTDRWIAIMLMAIGDAFNVMLEAKEEAEKLEKLGLVHKELLEKVKEEAERLFERSSDNFEEAAKRADDMEKEG	-3.02 log2	-3.13 log2
Index 71 (designed binder) GERAERARDWAKDQMDDELEKAREKLWKLAFIAFKFYLKLELLFKLMFRWIAIMLEAIGDFFNVWAIAKRWLERYKLQNNIRKEEIEKAKERAKKLYEEAADKAAKLGRFYMKLLTSG	-2.58 log2	-3.07 log2
Index 72 (designed binder) GGSYDDIADLAKKLHKKIAEEAKKKIDELLKEAFEDKPYEEEFAKKMFKWIAIALMAIGDLFNAAELAKRLAEDLKKDNNRDENKAEEAKQRAEQFEKEGAEELAKKGEEAAKKLAGG	-3.34 log2	-3.47 log2
Index 73 (designed binder) GKDLDEIIDEARKEMDDDADDGKKKAEKLLKLHAGTNHSQDDFNEAHRRWIAVALEEIGDLFNAALRAWRKIEEEIRKNQRRKEEAEKAKEKVSKEYERASRKAAELGKEFEERVEQG	-3.14 log2	-2.27 log2
Index 74 (designed binder) GTDHQAFDEWARRELERIVEEARERAERLREWIEQKDASREELTKFFAIWIAISLMAIGDLFNVKEQAKRLAELLEFLGLQRKEEIEKSKKNAEKLADEAMKKASKLDAKVEKELMQG	-3.38 log2	-2.62 log2
Index 00 (Design BbpD04) (designed binder) GADWKKVLDKAKDIAENRVREIKQKLEEFYKKAMKLDLTQEMRRKLMLEWIAAMLMAIGDIFNAIEQAKQEADKLKKAGQVNSQLLDELKRRLEELKEEASRKCHDYGREFQLKLEYG	3.92 log2	3.19 log2
Index 05 (designed binder) GKDADKKKDEAKKKAEWKEREVFERLEKMEWKKRKDSVSKDDARKFTLKWIADDLELIGDLFNLKEEAREVAEDAARNNQITEEQREEDEKDLEKLAKEHSWRAAYRGKLKAKEFWEG	-2.5 log2	-0.83 log2
Index 06 (designed binder) GRSANDILKQFLEMLQEALRKFDEKKNKIEDEWKQFDLSTQRREEATHKWIAAALMAIGDMFNALRWALEEALKAKLKNLQSSDDLKEAIERMMKLMLEKAQEIQEKGRELADKIEQG	-2.35 log2	-1.45 log2
Index 07 (designed binder) GEEFKKKLKKWEEWLLKATNEAENQARNMWQKAEQTDLEDQQRIRAVDFWIAIALMAIGDKFNADQEGDEEFEKYKKKGRASEDKIKEAKDERDRAKKRWEQFVKEAGERAFRGEQLG	-2.79 log2	-1.16 log2
Index 08 (designed binder) GWDARRALKYVYERMREDLEYARNQIDNMEDRADQYDARTEERKEFTKRWIALALMLIGDGFNAFERAKEWIDDGKNNNQRSSDEADYAKDEALKFIFYAAFEARRKGDELDKKAEGG	-3.06 log2	-0.8 log2
Index 09 (designed binder) GKEAKKRIQEALEEAKRKAEKLLREHEKKKKEHLLGDKRDREKTEETDKWIAEALMLIGDIFNLYMKFEWEKEREKKLGLLREEEEKEVEDEAKDAYLKALKLAYLVSKKGHEVAELG	-2.55 log2	-2.05 log2
Index 10 (designed binder) GDSDDDDLKDALLRMLWAAAQAIYHSLENMERKEKFDMHFEEERRDTLQWIADALRAIGDAFNEMMRRRRELEKKRENNIISEQRARLYEEFLKRFAEWASRELAKAGKKEANKLNEG	-0.72 log2	0.62 log2
Index 11 (designed binder) GNILDEAKDEMREEMEKLWKKFKDEVEEERKEAEREEKHFQERAELTKRWIARALMAIGDMFNRFREAKEKLEKRRELGLISEEDARKALLLLEEFMRRMAEFAKKLGDDLMRDAEKG	-2.62 log2	-1.55 log2
Index 12 (designed binder) GEDDDKVLKWALEALRKVLDEAKEKLEKLKKYTDGDGFGEDYRREFFRKWIAIALEAIGDIFNIMMEALQKADKHKKLNTHDSQKADEAKEKIKKFADEAEERAKELAKKGEAWLLKG	-2.56 log2	-1.37 log2
Index 13 (designed binder) GSKWEEDREKAKREAEKKLDEAKDKLDLYKDFALRFDASDELKTKWTLEWIALALEMIGDVFNYALEAKEFAEKKARNNLLLDDLKDLYKLYLALLAKEESKKAIEEGDKLREAIEKG	-3.07 log2	-1.6 log2
Index 14 (designed binder) GLSADDLFDYAEDRMREGWKDFEELAGEAEKKAKEHTLSDQERREATEKWIAAALELIGDAFNAIRWAEELGKLYVKLNLDDKQKVEELKKKLEERAKEEAQKARKRGDKLEDLADSG	-2.91 log2	-0.65 log2
Index 17 (designed binder) GRSAEIMREILEKQAEDDAKKIRDIAQKWKERRKRYDPRDEEREEEVEKWIAFALMAIGDIFNLARWALLQARWERRWNLSHEDEGKNHEENVKDAEDRAHWKAREAAREGAKMSWEG	-3.41 log2	-2.54 log2
Index 18 (designed binder) GGTEDDIKDLAEKWRDDMKKEFLREFLRIKEWTKYWGWREEGRKLATLRWIALSLMHIGDLFNLKELAKKLVDDIKKKGLEHEERAERAREEAEKIMEKAAKLDSILSKLAAKLIEEG	-1.36 log2	0.98 log2
Index 19 (designed binder) GERVEEILRKMLDDALLHFLEHRDDARERKERGERHQPRDEEREELSHDWIAAALMAIGDIFNAKLRAEERAEEFLKWGLRSQDDKKELEERAKEAAKIALKWAEEAGKEADEAEKAG	-2.97 log2	-1.98 log2
Index 20 (designed binder) GLRFEEIERYAREEADKIADEAKERFEKLKKLFLWLTDKDEERLKMTHLWIAGALEAIGDLFNAAELAKELAEKAARLTSQDANRRDEARKKIDEAEKEAADKVSKAAKEAAKFFEQG	-3.87 log2	-3.65 log2
Index 21 (designed binder, also called computational precursor for BbpD04) GFDWKKVLDKAKDLAENDVREAKQKLEEFYKKAMKLDLTQEMRRKLMLEWIAAMLMAIGDIFNAIEQGKQEADKLKKLGKVLSQLLDELKRRLEELKEEAALKAHDFGREFELKLLFG	-3.38 log2	-2.81 log2
Index 22 (designed binder) GSSAEDLRDWARDQHEKDVDKMEKRLRLLYFELARKDFNEEELKKATEKWIAAALDAIGDHFNAALKARLLARDAAKKGLIDRNKLDEVEKMAELFEELGERKAALKGREFLRWVLLG	-3.03 log2	-2.4 log2
Index 23 (designed binder) GEDEEKDHKDTEEKARRLHERARDMLDKVKDLEEKTDAQDNERRRATHDWIAAALMMIGDAFNSFEDTKRRAEKKRELNLISEDEAKEKIKRAEELRKRIYELLKKAAEFAREAEKGG	-1.72 log2	-0.17 log2
Index 24 (designed binder) GELAREAAEEAHRRVEEDARDAKNRLDEFKKRYKITQLSKSDISRATALWIAAALDAIGDIFNAKQKAEKILGLWYKLGLVQLQEFLEKEDKARYHWQAALERAFEAGRDMLEVAAYG	-3.02 log2	-2.95 log2
Index 25 (designed binder) GANHEDAIWEALYKAEDAFKDHLKEIEIYREFSEKFWPLDDYKDNLRAHWIAAALAAIGDWFNVFFEAELKFREAKRKNLRSEDDIKKYRWRLFKALDIAIDLADRVGDEAEKAERLG	-2.9 log2	-1.53 log2
Index 26 (designed binder) GRFAERLFKKMLIKQLLNTQYFRDQLKQLKDRSKKYDASDDDKDEATHRWIAFALMAIGDVFNDKLEIELLIELFAKYGLVHEEERKEFRKRLDEFEKIFRKWLDELKKLALEALNQG	-2.74 log2	-2 log2
Index 27 (designed binder) GLDGDYLMDEAFKFIERERERAEEEAKKMYELAEKGKYYEERKTKATKFWIALALEMIGDFFNFEMWFRKYAEKNRENNQRREDLLRRWELLLRFQAWDAAERARELGKRLELWFKKG	-0.72 log2	0.86 log2
Index 28 (designed binder) GKEGSRLREEAERRGLRKLLEVILRWLEDALRMIYGQDKDEDRKEATHRWIADALELIGDIFNALLEAFIKMELARRFGLLEEQRARDEKKKALERAEEFSKRARELGEKLTQILEGG	-4.52 log2	-2.85 log2
